For 167 variants, self-cleavage results are on record in the RNAGym collection of RNA variant scans (doi:10.7554/elife.90254).

Sequences and labels used below:
B1: LINE1-full (parent)
chain: UACGUAGGUGGUUUUCCCCUGAUAGUGCUAAGGGGGCCUGGAAGUUUGGACUGGGCAGAGCUCAACACAGCGUGGCAAAGUGGCUGUGGCUAGACUGCCUCUCUGGAUUCCUCGUCACUCAGCAGGGCAUCUCUGAGAGAAAUGCC

In this data set the parent is B1. Put plainly: self-cleavage, relative activity (ratio to wild type); higher = more cleavage; in vitro, sequencing; the parent is a self-cleaving ribozyme.
In the case of U62C U104C, the self-cleavage was 0.07.
On to U62C U104A, for which the self-cleavage worked out at 0.05.
As to U62C G89A, the self-cleavage was 0.01.
The same measure for A64C A69U: 0.05; for U62A A121U: 0.06; for U62G U87A: 0.1.
Take U62G U87G: the self-cleavage was found to be 0.
As to U62C U73G, the self-cleavage was 0.06.
On to U62C U73A, for which the self-cleavage is 0.03.
For U62C C76U, the self-cleavage was determined as 0.07.
Turning to U62G C63U, the self-cleavage stood at 0.07.
The same measure for C63A A140G: 0; for U62A C128U: 0.03; for U62A C110U: 0.08.
As for U62C A138U, the figure is 0.01; as for U62A U115C, 0.04; as for C63U A141G, 0.36.
With U62A A65C, the self-cleavage was 0.07.
On to C63U A129G, for which the self-cleavage stood at 0.3.
U62G U130C: the self-cleavage worked out at 0.11.
The same measure for U62C G70U: 0; for U62C U112C: 0.05.
For C63U U132C, the self-cleavage amounted to 0.35.
As for C63U U132A, the self-cleavage was found to be 0.46.
For C61U U112G, the self-cleavage turned out to be 0.04.
As for C63A U73A, the figure is 0.06.
C63A A65G: the self-cleavage amounted to 0.02.
C63U U112C: the self-cleavage came to 0.29.
U62C G83U: the self-cleavage amounted to 0.03.
Turning to U62C C145U, the self-cleavage was determined as 0.
On to U62C C90U, for which the self-cleavage was determined as 0.05.
As to U62A G93U, the self-cleavage amounted to 0.03.
On to U62C G137A, for which the self-cleavage was found to be 0.17.
Regarding U62C C99U, the self-cleavage stood at 0.04.
For C63A A129G, the self-cleavage was determined as 0.09.
Turning to C63A A129U, the self-cleavage came to 0.06.
For U62C U134A, the self-cleavage was determined as 0.05.
U62C U134C: the self-cleavage was found to be 0.05.
C63A A79G: the self-cleavage is 0.12.
Take U62A U81A: the self-cleavage was 0.05.
U62A U81C: the self-cleavage was determined as 0.04.
On to U62C C113G, for which the self-cleavage was determined as 0.07.
As for U62A U143C, the figure is 0.05; as for U62A U143G, 0.08.
Consider U62A A79U, for which the self-cleavage came to 0.03.
As for U62C A136U, the figure is 0.05; as for U62C A136C, 0.1.
Turning to U62C U132A, the self-cleavage was 0.05.
For the variant C63U A69G, the self-cleavage is 0.17.
The same measure for C63U U119G: 0.37; for U62C C66A: 0.02.
With U62A A117G, the self-cleavage amounted to 0.08.
Regarding U62A A117C, the self-cleavage turned out to be 0.05.
Consider A64C A67G, for which the self-cleavage amounted to 0.04.
For U62A U73C, the self-cleavage was 0.02.
On to U62C C98U, for which the self-cleavage was 0.02.
As for U62C C98A, the self-cleavage was 0.03.
Take U62A U104C: the self-cleavage was 0.1.
In the case of U62A U104A, the self-cleavage worked out at 0.04.
Consider U62C A142G, for which the self-cleavage amounted to 0.06.
Consider U62C C146U, for which the self-cleavage came to 0.03.
In the case of U62C U102A, the self-cleavage stood at 0.04.
Turning to U62A G82A, the self-cleavage was determined as 0.03.
Take U62C G93U: the self-cleavage was determined as 0.03.
Regarding U62G U73C, the self-cleavage was determined as 0.
Take C63U U100C: the self-cleavage stood at 0.99.
With C63U U100G, the self-cleavage was determined as 0.35.
Regarding C63U A107G, the self-cleavage is 0.45.
For U62C C123U, the self-cleavage was 0.01.
Take U62C C123G: the self-cleavage was determined as 0.07.
As for U62C U100C, the figure is 0.09; as for U62A A142G, 0.02; as for U62G A138G, 0.09.
Turning to U62C C118U, the self-cleavage was 0.03.
For the variant U62C A64C, the self-cleavage stood at 0.
With U62C A64U, the self-cleavage amounted to 0.05.
With U62C G97C, the self-cleavage came to 0.06.
As to U62A C103A, the self-cleavage amounted to 0.04.
Take U62C U109A: the self-cleavage amounted to 0.03.
As for U62C U109C, the self-cleavage is 0.08.
U62C C128U: the self-cleavage was determined as 0.03.
On to U62A A129G, for which the self-cleavage worked out at 0.06.
As for U62C U130C, the figure is 0.06; as for U62C A77G, 0.08.
On to U62C A77U, for which the self-cleavage was 0.03.
As for C61U U100A, the figure is 0.01; as for U62C A129G, 0.06.
As for U62C A129U, the figure is 0.01; as for U62A A92U, 0.03.
As for U62A A92G, the self-cleavage was determined as 0.07.
For the variant U62C U115A, the self-cleavage turned out to be 0.04.
Regarding U62C U115C, the self-cleavage was found to be 0.1.
Take C63A A121U: the self-cleavage is 0.
On to U62A C66U, for which the self-cleavage amounted to 0.01.
As for A64C A65G, the figure is 0.19; as for A64C A65U, 0.06.
For the variant U62A U85A, the self-cleavage stood at 0.02.
In the case of U62A U85C, the self-cleavage is 0.08.
For U62A U85G, the self-cleavage was 0.
With U62C U96C, the self-cleavage is 0.06.
As for U62A C99A, the self-cleavage turned out to be 0.03.
For U62G A136G, the self-cleavage was 0.
The same measure for U62A A138U: 0.06; for U62A A138G: 0.06; for U62C U143C: 0.06.
With U62C U143A, the self-cleavage is 0.06.
As for U62A C84U, the self-cleavage worked out at 0.04.
In the case of U62A U119A, the self-cleavage was found to be 0.04.
Regarding U62C A94C, the self-cleavage was 0.07.
Regarding U62C A94G, the self-cleavage is 0.11.
Take U62A U134A: the self-cleavage amounted to 0.07.
For U62C A124U, the self-cleavage was determined as 0.05.
The same measure for U62C A69U: 0.03; for C63U U73G: 0.21.
With C63U U91C, the self-cleavage came out at 0.18.
Regarding C63U U91G, the self-cleavage was 0.04.
Consider C63A A94G, for which the self-cleavage came to 0.08.
U62C G127A: the self-cleavage turned out to be 0.06.
With U62G A67G, the self-cleavage stood at 0.09.
In the case of U62C G114A, the self-cleavage worked out at 0.05.
Take U62C A141U: the self-cleavage turned out to be 0.03.
U62A G144A: the self-cleavage was determined as 0.05.
As for U62A G86A, the self-cleavage came to 0.05.
Consider U62C U91G, for which the self-cleavage amounted to 0.
On to U62C U85G, for which the self-cleavage was found to be 0.
U62A A124G: the self-cleavage was 0.02.
Consider U62C G122C, for which the self-cleavage amounted to 0.03.
Turning to U62C G122A, the self-cleavage is 0.04.
C61U U87C: the self-cleavage was 0.03.
As for C63U U87A, the self-cleavage was determined as 0.07.
On to C63U A79G, for which the self-cleavage is 0.58.
On to U62C A140U, for which the self-cleavage is 0.04.
Turning to U62G U108C, the self-cleavage worked out at 0.07.
Consider U62C C110A, for which the self-cleavage is 0.05.
Consider C63A U130C, for which the self-cleavage worked out at 0.05.
As for U62C A107U, the self-cleavage came out at 0.06.
Take C63A U81A: the self-cleavage was 0.06.
Take U62C A65U: the self-cleavage was 0.01.
For U62C A121G, the self-cleavage came out at 0.1.
As for U62C A121U, the self-cleavage turned out to be 0.04.
Regarding U62C C103A, the self-cleavage is 0.04.
As for U62C U119A, the self-cleavage was 0.07.
As to U62C U119C, the self-cleavage was determined as 0.07.
The same measure for U62A G72A: 0.01.
On to U62A G72C, for which the self-cleavage was found to be 0.03.
As for U62C G88U, the figure is 0.04; as for U62C C95U, 0.03.
The same measure for U62G U115G: 0.14; for U62C G126C: 0.01.
The same measure for U62C G126U: 0.04.
With U62A A136U, the self-cleavage was found to be 0.14.
Take U62A A136G: the self-cleavage is 0.03.
U62A C120U: the self-cleavage is 0.02.
As to U62A A69G, the self-cleavage amounted to 0.02.
Turning to U62A A69U, the self-cleavage turned out to be 0.05.
The same measure for U62C C111A: 0.02.
The same measure for U62A U130A: 0.03; for U62C G74A: 0.04.
Regarding C63U U143C, the self-cleavage is 0.3.
For C63U U143A, the self-cleavage was found to be 0.44.
On to U62A A141G, for which the self-cleavage was 0.05.
In the case of C63A U104C, the self-cleavage came to 0.07.
As for U62C U87A, the figure is 0.04; as for U62C U87C, 0.05; as for U62A G83A, 0.05.
The same measure for U62G A77G: 0.07.
The same measure for U62A A78G: 0.05.
